Test results reported in US20220348665A1 (ABL BIO, published 2022).
Substitutions are numbered along the chain they refer to. “And” between values parts separate entries of the source, which are not always exact repeats. Equal values may be shown once. Read-outs that look alike come from different tables or passages of the source.

Experiments:
[1] = target: T1, alpha-synuclein aggregates (human alpha-synuclein, fibril) (human, UniProt P37840 1-140); assay: SPR (BIAcore T200), antibody captured on protein A chip, 1:1 model
[2] = target: T1, alpha-synuclein aggregates (human …); assay: SPR (BIAcore T200), antibody captured on Protein A chip, alpha-synuclein fibril as analyte (file ProteinA-Fibril-main-5th), 25 C, fit 1:1 Binding
[3] = target: T1, alpha-synuclein aggregates (human …); assay: sandwich ELISA: antibody coated at 0.04 to 400 nM, 2000 ng/ml alpha-synuclein aggregates, biotin-conjugated antibody and HRP-streptavidin; value is C of the 4-P fit table under the plot, which the text calls EC50
[4] = target: T2, monkey IGF1R, recombinant, His tag at C-terminus (monkey); assay: ELISA, monkey IGF1R coated, anti-human Fab HRP
T2 construct: also called Monkey IGF1R (National Research Council Canada)

[5] = target: T1, alpha-synuclein aggregates (human …); assay: ELISA on coated alpha-synuclein aggregates, antibody 5-fold dilutions from 400 nM, anti-human Fc-HRP; value is C of the 4-P fit table under the plot
[6] = target: T1, alpha-synuclein aggregates (human …); assay: ELISA on alpha-synuclein aggregates coated at 1 ug/ml, antibody 5-fold dilutions from 400 nM, anti-human Fc-HRP; value is C of the 4-P fit table under the plot
[7] = target: T3, human IGF1R, endogenous, on the surface of breast cancer cell lines (MCF-7, JIMT-1, BT474) (human, UniProt P08069 31-1367); assay: FACS on MCF-7 cells, antibody 10 ug/mL (2nd Ab only 2.86, not treated 1.88)
T3 construct: also called endogenous IGF1R on the cell surface; MCF-7 cell line

[8] = target: T1, alpha-synuclein aggregates (human …); assay: SPR (BIAcore T200), antibody captured on Protein A chip, alpha-synuclein fibril as analyte (file ProteinA-Fibril-main-5th), 25 C, fit 1:1 Binding; remark: listed apart in the source
[9] = target: T1, alpha-synuclein aggregates (human …); assay: sandwich ELISA, antibody coated, aggregates 2000 ng/ml
[10] = target: T4, mouse IGF1R on bEND.3 mouse brain endothelial cells (mouse, UniProt Q60751 31-1373); assay: FACS on bEND.3 mouse brain endothelial cells
T4 construct: whole, on cells; also called IGF1R expressed on the surface of brain endothelial cells
T4 sequence (Q60751 31-1373): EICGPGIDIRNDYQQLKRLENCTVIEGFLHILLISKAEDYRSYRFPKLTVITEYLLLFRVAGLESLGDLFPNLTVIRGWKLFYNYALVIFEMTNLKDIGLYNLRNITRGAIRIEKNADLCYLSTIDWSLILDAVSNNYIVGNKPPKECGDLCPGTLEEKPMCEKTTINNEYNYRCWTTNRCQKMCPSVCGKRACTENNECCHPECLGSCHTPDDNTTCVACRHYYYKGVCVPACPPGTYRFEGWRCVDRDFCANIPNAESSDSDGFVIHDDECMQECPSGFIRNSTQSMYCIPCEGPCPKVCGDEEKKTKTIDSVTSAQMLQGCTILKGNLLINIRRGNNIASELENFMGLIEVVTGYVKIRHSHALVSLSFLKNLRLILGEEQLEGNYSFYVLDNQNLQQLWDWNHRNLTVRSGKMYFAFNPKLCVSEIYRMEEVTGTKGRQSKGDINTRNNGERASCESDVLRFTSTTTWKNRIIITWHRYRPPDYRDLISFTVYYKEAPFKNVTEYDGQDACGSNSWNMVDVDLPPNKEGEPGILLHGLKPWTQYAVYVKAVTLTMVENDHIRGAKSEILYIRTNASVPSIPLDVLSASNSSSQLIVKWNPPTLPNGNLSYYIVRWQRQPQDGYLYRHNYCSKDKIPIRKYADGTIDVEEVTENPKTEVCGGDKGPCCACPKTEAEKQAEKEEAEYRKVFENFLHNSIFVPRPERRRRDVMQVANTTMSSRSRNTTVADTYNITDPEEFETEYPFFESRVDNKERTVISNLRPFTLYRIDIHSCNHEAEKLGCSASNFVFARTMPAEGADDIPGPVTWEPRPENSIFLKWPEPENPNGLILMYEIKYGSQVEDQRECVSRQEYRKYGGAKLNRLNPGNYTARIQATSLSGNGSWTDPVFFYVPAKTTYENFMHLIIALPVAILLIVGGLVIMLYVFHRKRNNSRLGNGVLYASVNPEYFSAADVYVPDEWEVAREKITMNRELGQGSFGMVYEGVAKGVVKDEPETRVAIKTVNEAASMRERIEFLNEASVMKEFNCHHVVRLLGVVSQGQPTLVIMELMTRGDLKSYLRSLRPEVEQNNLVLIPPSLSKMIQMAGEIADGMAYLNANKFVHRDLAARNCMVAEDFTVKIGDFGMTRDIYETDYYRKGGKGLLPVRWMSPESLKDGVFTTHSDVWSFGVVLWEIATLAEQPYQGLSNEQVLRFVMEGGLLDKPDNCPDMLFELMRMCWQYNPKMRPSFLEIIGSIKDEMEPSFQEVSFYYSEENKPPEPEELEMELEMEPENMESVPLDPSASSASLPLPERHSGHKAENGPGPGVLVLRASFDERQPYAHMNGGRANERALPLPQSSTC

[11] = target: T1, alpha-synuclein aggregates (human …); assay: SPR (BIAcore T200), antibody captured on Protein A chip, alpha-synuclein fibril as analyte (file ProteinA-Fibril-main-5th), 25 C, fit 1:1 Binding; remark: listed apart in the source
[12] = target: T5, human IGF1R extracellular domain, recombinant, His tag at C-terminus (human, UniProt P08069 31-932); assay: ELISA on coated IGF1R, antibody 5-fold dilutions from 400 nM, anti-human Fc-HRP; C of the 4-P fit (D 2.68), extrapolated: curve at baseline up to about 3 nM, about 0.8 at 80 nM and about 1.75 at 400 nM, no plateau; the text says this monospecific antibody did not bind
T5 construct: also called human IGF1R ECD; ECD of IGF1R

[13] = target: T5, human IGF1R extracellular domain, …; assay: ELISA on coated IGF1R, antibody 5-fold dilutions from 400 nM, anti-human Fc-HRP; C of the 4-P fit (D 0.945, R^2 0.985), extrapolated: curve at baseline up to 16 nM, about 0.2 at 80 nM and about 0.75 at 400 nM, no plateau; the text says this monospecific antibody did not bind
[14] = target: T5, human IGF1R extracellular domain, …; assay: ELISA, human IGF1R coated, anti-human Fab HRP
[15] = target: T5, human IGF1R extracellular domain, …; assay: SPR (Biacore T200), His-tagged human IGF1R ECD captured by anti-his antibody on CM4 chip, bivalent model
[16] = target: T5, human IGF1R extracellular domain, …; assay: SPR (Biacore T200), His-tagged human IGF1R ECD captured by anti-His antibody on CM4 chip, 1564 IgG as analyte, 25 C, fit Bivalent Analyte; lower panel
[17] = target: T5, human IGF1R extracellular domain, …; assay: SPR (Biacore T200), His-tagged human IGF1R ECD captured by anti-His antibody on CM4 chip, 1564 IgG as analyte, 25 C, fit Bivalent Analyte; upper panel

B1: hu11F11(ver.4) (antibody, human IgG1, V domains shown)
VH: EVQLVESGGGLVQPGGSLRLSCATSGFTFSDFYMEWVRQPPGKRLEWIAASRNKANDYTTEYSASVKGRFTVSRDTSKSSLYLQMNSLRAEDTAIYYCARDAHGKPFAYWGQGTTVTVSS
VL: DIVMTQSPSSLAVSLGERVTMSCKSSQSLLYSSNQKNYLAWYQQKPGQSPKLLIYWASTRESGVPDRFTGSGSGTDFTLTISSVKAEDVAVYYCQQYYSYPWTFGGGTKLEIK
notes: Human IgG1 backbone
B1 was tested, and the Kd [1] was 0.0204 nM, the koff [2] was 0.000291 s⁻¹ and the kon [2] was 1.07e+06 M⁻¹ s⁻¹. It also gave an EC50 [3] of 12.9 nM.

B2: ch11F11-1564 (bivalent bispecific antibody: chimeric 11F11 IgG with 1564 scFv on each heavy chain) (bispecific antibody, not shown: a dimerising Fc or GST)
heavy (part 1 of 2): B1 VH with V5Q, T71I, K78Q, S80I, S87A, T115L, S120A
heavy (part 2 of 2): GGGGSGGGGSGGGGSQSVLTQPPSASGTPGQRVTISCTGSSSNIGSNDVSWYQQLPGTAPKLLIYANSNRPSGVSDRFSGSKSGTSASLAISGLRSEDEADYYCGAWDDSLNGYVFGCGTKLTVLGGGGSGGGGSGGGGSGGGGSEVQLLESGGGLVQPGGSLRLSCAASGFTFSSYDMSWVRQAPGKCLEWVSAISYDNGNTYYADSVKGRFTISRDNSKNTLYLQMNSLRAEDTAVYYCAKGVLTTLMNWFDYWGQGTLVTVSS
light: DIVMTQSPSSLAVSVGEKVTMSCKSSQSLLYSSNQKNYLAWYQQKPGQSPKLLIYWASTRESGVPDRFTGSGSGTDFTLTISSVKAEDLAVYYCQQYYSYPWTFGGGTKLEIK
For B2, the EC50 [4] was 2.48 nM and 2.21 nM, the EC50 [5] was 1.5 nM and the EC50 [6] was 22.7 nM.

B3: hu11F11(ver.2) (antibody, human IgG1, kappa, V domains shown)
VH: B1 VH with T76D
VL: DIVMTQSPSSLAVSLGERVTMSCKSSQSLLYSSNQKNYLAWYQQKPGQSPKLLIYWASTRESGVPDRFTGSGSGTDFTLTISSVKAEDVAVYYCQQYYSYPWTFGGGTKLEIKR
notes: also called hu11F11 WT; humanized antibody 11F11 (ver. 2)
With B3 the Kd [1] was 0.0596 nM, the “GeoMean, Internalization at 37° C.” value [7] was 3.18 and the koff [8] was 0.000173 s⁻¹. The kon [8] was 1.19e+06 M⁻¹ s⁻¹ and the EC50 [3] was 15.1 nM.

B4: Ch11F11 (chimeric 11F11 antibody, human IgG1) (antibody, V domains shown)
VH: B1 VH with V5Q, T71I, K78Q, S80I, S87A, T115L, S120A
VL: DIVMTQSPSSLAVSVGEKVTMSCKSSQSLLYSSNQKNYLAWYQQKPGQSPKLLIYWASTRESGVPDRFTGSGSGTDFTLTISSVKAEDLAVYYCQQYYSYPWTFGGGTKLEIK
notes: Chimeric human IgG1
For B4, the EC50 [9] was 12.5 nM, the binding result [10] was “no binding” and the Kd [1] was 0.0247 nM. The koff [11] was 0.000563 s⁻¹, the kon [11] was 609000 M⁻¹ s⁻¹ and the EC50 [5] was 1.27 nM. For the same binder, the EC50 [6] was 33.8 nM, the EC50 [12] was 201 nM and the EC50 [13] was 196 nM.

B5: hu11F11(ver.1) (antibody, human IgG1, V domains shown)
VH: B1 VH with V72I, T76D
VL: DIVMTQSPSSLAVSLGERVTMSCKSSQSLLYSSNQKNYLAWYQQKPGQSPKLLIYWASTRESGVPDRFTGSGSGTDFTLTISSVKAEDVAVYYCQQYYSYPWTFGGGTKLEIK
notes: Human IgG1 backbone
For B5, the koff [11] was 5.36e-05 s⁻¹, the kon [11] was 845000 M⁻¹ s⁻¹ and the EC50 [3] was 11.5 nM.

B6: hu11F11(ver.3) (antibody, human IgG1, V domains shown)
VH: B1 VH with V72I
VL: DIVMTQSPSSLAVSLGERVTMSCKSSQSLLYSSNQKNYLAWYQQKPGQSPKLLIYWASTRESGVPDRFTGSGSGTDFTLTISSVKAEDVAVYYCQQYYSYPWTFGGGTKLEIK
notes: Human IgG1 backbone
With B6 the Kd [1] was 0.0316 nM, the koff [8] was 0.000266 s⁻¹ and the kon [8] was 1.07e+06 M⁻¹ s⁻¹. For the same binder, the EC50 [3] was 13.4 nM.

B7: 1564 IgG (anti-IGF1R clone 1564, full IgG1 form) (antibody, V domains shown)
VH: EVQLLESGGGLVQPGGSLRLSCAASGFTFSSYDMSWVRQAPGKGLEWVSAISYDNGNTYYADSVKGRFTISRDNSKNTLYLQMNSLRAEDTAVYYCAKGVLTTLMNWFDYWGQGTLVTVSS
VL: QSVLTQPPSASGTPGQRVTISCTGSSSNIGSNDVSWYQQLPGTAPKLLIYANSNRPSGVPDRFSGSKSGTSASLAISGLRSEDEADYYCGAWDDSLNGYVFGGGTKLTVL
Work on B7 yielded an EC50 [14] of 0.0823 nM, a Kd [15] of 2.53 nM and a koff [16] of 2.53e-06 s⁻¹. For the same binder, the koff [17] was 2.41e-06 s⁻¹ and the kon [17] was 902 M⁻¹ s⁻¹.
